Activity data for 1 substance are collected here from patent US5580958.

This data set addresses PU.1 (PU pECE) (Mus musculus) (UniProt P17433). Put plainly: cell_activity. The conditions noted are these: 8 copies upstream of TK-CAT in HeLa; 1 copy 3.5-3.6 fold, 4 copies 3.9-4.3 fold.

For the substance PU-1 (SV40 enhancer PU box), the activity turned out to be 18.3 fold.
